Measured values from patent US20230174608A1 (published 2023).
*1 amine or outer side, *2 acyl side, *3 side chain or, on linkers, in order; H or OH if unused. Where no end group is shown, it is not given here. Side-chain parts run from the residue outwards. [ ]: non-standard residue; d: D form. The star is where a group is joined. C18 diacid = O=C(O)CCCCCCCCCCCCCCCCC(=O)*; γGlu = O=C(O)[C@H](CCC(=O)[*:2])N[*:1]; AEEA = NCCOCCOCC(=O)O; Aib = CC(C)(N)C(=O)O

Assays:
[1] = target: GLP-1 receptor (GLP-1R), stably expressed on HEK293 cells; experiment: cell-based or functional assay
[2] = target: Glucagon receptor (GCGR), stably expressed on HEK293 cells; experiment: cell-based or functional assay

## H[Aib]QGTFTSDYSKYLEERAAKEFIAWLESGG-NH2 (not fully specified (residue 20); printed as HAibQGTFTSDYSKYLEERAAK*EFIAWLESGG) [dgc009]
[1]
  GLP-1R (nM EC50), receptor-mediated cAMP production in HEK293 cells: 0.092 nM
[2]
  GCGR (nM EC50), receptor-mediated cAMP production in HEK293 cells: 8.22 nM

## H[Aib]QGTFTSDYSKYLEERAAKEFIAWLEAGG-NH2 (not fully specified (residue 20)) [dgc011]
[1]
  GLP-1R (nM EC50), receptor-mediated cAMP production in HEK293 cells: 0.955 nM
[2]
  GCGR (nM EC50), receptor-mediated cAMP production in HEK293 cells: 4.13 nM

B1: dgc007 (peptide)
peptide: HXQGTFTSDYSKYLDERAAKEFIAWLESGG
HELM: PEPTIDE1{H.[Aib].Q.G.T.F.T.S.D.Y.S.K.Y.L.D.E.R.A.A.K.E.F.I.A.W.L.E.S.G.G.[am]}|PEPTIDE2{[CCCCCCCCCCCCCCCC(=O)[*:2]].[gGlu]}$PEPTIDE1,PEPTIDE2,20:R3-2:R2$$$V2.0; N-terminus assumed
SMILES: CCCCCCCCCCCCCCCC(=O)N[C@@H](CCC(=O)NCCCC[C@H](NC(=O)[C@H](C)NC(=O)[C@H](C)NC(=O)[C@H](CCCNC(=N)N)NC(=O)[C@H](CCC(=O)O)NC(=O)[C@H](CC(=O)O)NC(=O)[C@H](CC(C)C)NC(=O)[C@H](Cc1ccc(O)cc1)NC(=O)[C@H](CCCCN)NC(=O)[C@H](CO)NC(=O)[C@H](Cc1ccc(O)cc1)NC(=O)[C@H](CC(=O)O)NC(=O)[C@H](CO)NC(=O)[C@@H](NC(=O)[C@H](Cc1ccccc1)NC(=O)[C@@H](NC(=O)CNC(=O)[C@H](CCC(N)=O)NC(=O)C(C)(C)NC(=O)[C@@H](N)Cc1c[nH]cn1)[C@@H](C)O)[C@@H](C)O)C(=O)N[C@@H](CCC(=O)O)C(=O)N[C@@H](Cc1ccccc1)C(=O)N[C@H](C(=O)N[C@@H](C)C(=O)N[C@@H](Cc1c[nH]c2ccccc12)C(=O)N[C@@H](CC(C)C)C(=O)N[C@@H](CCC(=O)O)C(=O)N[C@@H](CO)C(=O)NCC(=O)NCC(N)=O)[C@@H](C)CC)C(=O)O
[1]
  GLP-1R (nM EC50), receptor-mediated cAMP production in HEK293 cells: 0.28 nM
[2]
  GCGR (nM EC50), receptor-mediated cAMP production in HEK293 cells: 0.971 nM

B2: dgc012 (peptide)
peptide: H[dS]QGTFTSDYSKYLEERAAK([AEEA-AEEA-γGlu-C18 diacid])EFVAWLEGG-NH2
modifications: N-terminus assumed
SMILES: CC(C)C[C@H](NC(=O)[C@H](Cc1c[nH]c2ccccc12)NC(=O)[C@H](C)NC(=O)[C@@H](NC(=O)[C@H](Cc1ccccc1)NC(=O)[C@H](CCC(=O)O)NC(=O)[C@H](CCCCNC(=O)COCCOCCNC(=O)COCCOCCNC(=O)CC[C@H](NC(=O)CCCCCCCCCCCCCCCCC(=O)O)C(=O)O)NC(=O)[C@H](C)NC(=O)[C@H](C)NC(=O)[C@H](CCCNC(=N)N)NC(=O)[C@H](CCC(=O)O)NC(=O)[C@H](CCC(=O)O)NC(=O)[C@H](CC(C)C)NC(=O)[C@H](Cc1ccc(O)cc1)NC(=O)[C@H](CCCCN)NC(=O)[C@H](CO)NC(=O)[C@H](Cc1ccc(O)cc1)NC(=O)[C@H](CC(=O)O)NC(=O)[C@H](CO)NC(=O)[C@@H](NC(=O)[C@H](Cc1ccccc1)NC(=O)[C@@H](NC(=O)CNC(=O)[C@H](CCC(N)=O)NC(=O)[C@@H](CO)NC(=O)[C@@H](N)Cc1c[nH]cn1)[C@@H](C)O)[C@@H](C)O)C(C)C)C(=O)N[C@@H](CCC(=O)O)C(=O)NCC(=O)NCC(N)=O
[1]
  GLP-1R (nM EC50), receptor-mediated cAMP production in HEK293 cells: 0.044 nM
[2]
  GCGR (nM EC50), receptor-mediated cAMP production in HEK293 cells: 2.17 nM

B3: dgc010 (peptide)
peptide: HXQGTFTSDYSKYLEERAAKEFIAWLESGG
HELM: PEPTIDE1{H.[Aib].Q.G.T.F.T.S.D.Y.S.K.Y.L.E.E.R.A.A.K.E.F.I.A.W.L.E.S.G.G.[am]}|PEPTIDE2{[CCCCCCCCCCCCCCCC(=O)[*:2]].[gGlu].[gGlu]}$PEPTIDE1,PEPTIDE2,20:R3-3:R2$$$V2.0; N-terminus assumed
SMILES: CCCCCCCCCCCCCCCC(=O)N[C@@H](CCC(=O)N[C@@H](CCC(=O)NCCCC[C@H](NC(=O)[C@H](C)NC(=O)[C@H](C)NC(=O)[C@H](CCCNC(=N)N)NC(=O)[C@H](CCC(=O)O)NC(=O)[C@H](CCC(=O)O)NC(=O)[C@H](CC(C)C)NC(=O)[C@H](Cc1ccc(O)cc1)NC(=O)[C@H](CCCCN)NC(=O)[C@H](CO)NC(=O)[C@H](Cc1ccc(O)cc1)NC(=O)[C@H](CC(=O)O)NC(=O)[C@H](CO)NC(=O)[C@@H](NC(=O)[C@H](Cc1ccccc1)NC(=O)[C@@H](NC(=O)CNC(=O)[C@H](CCC(N)=O)NC(=O)C(C)(C)NC(=O)[C@@H](N)Cc1c[nH]cn1)[C@@H](C)O)[C@@H](C)O)C(=O)N[C@@H](CCC(=O)O)C(=O)N[C@@H](Cc1ccccc1)C(=O)N[C@H](C(=O)N[C@@H](C)C(=O)N[C@@H](Cc1c[nH]c2ccccc12)C(=O)N[C@@H](CC(C)C)C(=O)N[C@@H](CCC(=O)O)C(=O)N[C@@H](CO)C(=O)NCC(=O)NCC(N)=O)[C@@H](C)CC)C(=O)O)C(=O)O
[1]
  GLP-1R (nM EC50), receptor-mediated cAMP production in HEK293 cells: 0.537 nM
[2]
  GCGR (nM EC50), receptor-mediated cAMP production in HEK293 cells: 0.614 nM

B4: dgc008 (peptide)
peptide: HXQGTFTSDYSKYLEERAAKEFIAWLESGG
HELM: PEPTIDE1{H.[Aib].Q.G.T.F.T.S.D.Y.S.K.Y.L.E.E.R.A.A.K.E.F.I.A.W.L.E.S.G.G.[am]}|PEPTIDE2{[CCCCCCCCCCCCCCCC(=O)[*:2]].[gGlu]}$PEPTIDE1,PEPTIDE2,20:R3-2:R2$$$V2.0; N-terminus assumed
SMILES: CCCCCCCCCCCCCCCC(=O)N[C@@H](CCC(=O)NCCCC[C@H](NC(=O)[C@H](C)NC(=O)[C@H](C)NC(=O)[C@H](CCCNC(=N)N)NC(=O)[C@H](CCC(=O)O)NC(=O)[C@H](CCC(=O)O)NC(=O)[C@H](CC(C)C)NC(=O)[C@H](Cc1ccc(O)cc1)NC(=O)[C@H](CCCCN)NC(=O)[C@H](CO)NC(=O)[C@H](Cc1ccc(O)cc1)NC(=O)[C@H](CC(=O)O)NC(=O)[C@H](CO)NC(=O)[C@@H](NC(=O)[C@H](Cc1ccccc1)NC(=O)[C@@H](NC(=O)CNC(=O)[C@H](CCC(N)=O)NC(=O)C(C)(C)NC(=O)[C@@H](N)Cc1c[nH]cn1)[C@@H](C)O)[C@@H](C)O)C(=O)N[C@@H](CCC(=O)O)C(=O)N[C@@H](Cc1ccccc1)C(=O)N[C@H](C(=O)N[C@@H](C)C(=O)N[C@@H](Cc1c[nH]c2ccccc12)C(=O)N[C@@H](CC(C)C)C(=O)N[C@@H](CCC(=O)O)C(=O)N[C@@H](CO)C(=O)NCC(=O)NCC(N)=O)[C@@H](C)CC)C(=O)O
[1]
  GLP-1R (nM EC50), receptor-mediated cAMP production in HEK293 cells: 0.742 nM
[2]
  GCGR (nM EC50), receptor-mediated cAMP production in HEK293 cells: 2.03 nM

## H[Aib]QGTFTSDYSKYLEERAAKEFIAWLEAGG-NH2 (not fully specified (residue 20)) [dgc006]
[1]
  GLP-1R (nM EC50), receptor-mediated cAMP production in HEK293 cells: 0.472 nM
[2]
  GCGR (nM EC50), receptor-mediated cAMP production in HEK293 cells: 6.41 nM

B5: dgc005 (peptide)
peptide: HXQGTFTSDYSKYLEERAAKEFIAWLEAGG
HELM: PEPTIDE1{H.[Aib].Q.G.T.F.T.S.D.Y.S.K.Y.L.E.E.R.A.A.K.E.F.I.A.W.L.E.A.G.G.[am]}|PEPTIDE2{[CCCCCCCCCCCCCCCC(=O)[*:2]].[gGlu].[gGlu]}$PEPTIDE1,PEPTIDE2,20:R3-3:R2$$$V2.0; N-terminus assumed
SMILES: CCCCCCCCCCCCCCCC(=O)N[C@@H](CCC(=O)N[C@@H](CCC(=O)NCCCC[C@H](NC(=O)[C@H](C)NC(=O)[C@H](C)NC(=O)[C@H](CCCNC(=N)N)NC(=O)[C@H](CCC(=O)O)NC(=O)[C@H](CCC(=O)O)NC(=O)[C@H](CC(C)C)NC(=O)[C@H](Cc1ccc(O)cc1)NC(=O)[C@H](CCCCN)NC(=O)[C@H](CO)NC(=O)[C@H](Cc1ccc(O)cc1)NC(=O)[C@H](CC(=O)O)NC(=O)[C@H](CO)NC(=O)[C@@H](NC(=O)[C@H](Cc1ccccc1)NC(=O)[C@@H](NC(=O)CNC(=O)[C@H](CCC(N)=O)NC(=O)C(C)(C)NC(=O)[C@@H](N)Cc1c[nH]cn1)[C@@H](C)O)[C@@H](C)O)C(=O)N[C@@H](CCC(=O)O)C(=O)N[C@@H](Cc1ccccc1)C(=O)N[C@H](C(=O)N[C@@H](C)C(=O)N[C@@H](Cc1c[nH]c2ccccc12)C(=O)N[C@@H](CC(C)C)C(=O)N[C@@H](CCC(=O)O)C(=O)N[C@@H](C)C(=O)NCC(=O)NCC(N)=O)[C@@H](C)CC)C(=O)O)C(=O)O
[1]
  GLP-1R (nM EC50), receptor-mediated cAMP production in HEK293 cells: 0.484 nM
[2]
  GCGR (nM EC50), receptor-mediated cAMP production in HEK293 cells: 1.16 nM

B6: dgc004 (peptide)
peptide: HXQGTFTSDYSKYLEERAAKEFIAWLEAGG
HELM: PEPTIDE1{H.[Aib].Q.G.T.F.T.S.D.Y.S.K.Y.L.E.E.R.A.A.K.E.F.I.A.W.L.E.A.G.G.[am]}|PEPTIDE2{[CCCCCCCCCCCCCCCC(=O)[*:2]].[gGlu]}$PEPTIDE1,PEPTIDE2,20:R3-2:R2$$$V2.0; N-terminus assumed
SMILES: CCCCCCCCCCCCCCCC(=O)N[C@@H](CCC(=O)NCCCC[C@H](NC(=O)[C@H](C)NC(=O)[C@H](C)NC(=O)[C@H](CCCNC(=N)N)NC(=O)[C@H](CCC(=O)O)NC(=O)[C@H](CCC(=O)O)NC(=O)[C@H](CC(C)C)NC(=O)[C@H](Cc1ccc(O)cc1)NC(=O)[C@H](CCCCN)NC(=O)[C@H](CO)NC(=O)[C@H](Cc1ccc(O)cc1)NC(=O)[C@H](CC(=O)O)NC(=O)[C@H](CO)NC(=O)[C@@H](NC(=O)[C@H](Cc1ccccc1)NC(=O)[C@@H](NC(=O)CNC(=O)[C@H](CCC(N)=O)NC(=O)C(C)(C)NC(=O)[C@@H](N)Cc1c[nH]cn1)[C@@H](C)O)[C@@H](C)O)C(=O)N[C@@H](CCC(=O)O)C(=O)N[C@@H](Cc1ccccc1)C(=O)N[C@H](C(=O)N[C@@H](C)C(=O)N[C@@H](Cc1c[nH]c2ccccc12)C(=O)N[C@@H](CC(C)C)C(=O)N[C@@H](CCC(=O)O)C(=O)N[C@@H](C)C(=O)NCC(=O)NCC(N)=O)[C@@H](C)CC)C(=O)O
[1]
  GLP-1R (nM EC50), receptor-mediated cAMP production in HEK293 cells: 0.113 nM
[2]
  GCGR (nM EC50), receptor-mediated cAMP production in HEK293 cells: 5.84 nM
